This test concerns the target β-casein. Particulars: scale: % of the protease activity of natural Hin47 protein.

Some results are limits rather than exact numbers.

As to Hin47 Ser-197->alanine analog (enzyme), the Protease activity (digestion of β-casein, SDS-PAGE) is less than 10.

The values are drawn from patent US6114125.
